Measurements from patent publication US20120172293A1 (Takeda / Millennium, published 2012).
Non-standard residues stand in square brackets, D forms with d. Dap(CONH2) = NC(=O)NC[C@H](N)C(=O)O; 3Pal = N[C@@H](Cc1cccnc1)C(=O)O; 4Pal = N[C@@H](Cc1ccncc1)C(=O)O; Cha = N[C@@H](CC1CCCCC1)C(=O)O; Cit = NC(=O)NCCC[C@H](N)C(=O)O; d(αMeP) = C[C@]1(C(=O)O)CCCN1; αMeP = C[C@@]1(C(=O)O)CCCN1; NMeS = CN[C@@H](CO)C(=O)O; Nle = CCCC[C@H](N)C(=O)O; Orn = NCCC[C@H](N)C(=O)O; dAze = O=C(O)[C@H]1CCN1; Aib = CC(C)(N)C(=O)O

Legend:
[1] = target: human Y2 receptor (human) (UniProt P49146); test: cell-based or functional assay
[2] = target: human Y2 receptor (human) (UniProt P49146); test: RBA: [125I]-PYY displacement, hY2R/CHO membranes

Sequence of human Y2 receptor (human) (P49146 whole entry): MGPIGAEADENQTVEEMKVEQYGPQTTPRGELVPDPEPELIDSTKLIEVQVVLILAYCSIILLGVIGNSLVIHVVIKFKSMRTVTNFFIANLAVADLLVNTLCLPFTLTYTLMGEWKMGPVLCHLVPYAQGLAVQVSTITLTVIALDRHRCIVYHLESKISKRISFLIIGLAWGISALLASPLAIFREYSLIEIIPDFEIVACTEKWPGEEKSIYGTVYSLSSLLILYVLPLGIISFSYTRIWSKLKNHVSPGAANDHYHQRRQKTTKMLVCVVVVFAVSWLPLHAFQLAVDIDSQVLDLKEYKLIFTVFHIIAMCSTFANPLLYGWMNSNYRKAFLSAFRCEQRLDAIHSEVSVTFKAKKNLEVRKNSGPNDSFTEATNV

| Binder | GBA EC50 Ratio (vs PYY(3-36)), [35S]GTPγS [1] | IC50 Ratio (vs PYY(3-36)) [2] |
| --- | --- | --- |
| Ac-A[NMeS][dP]RH[Cha][Cha]NL[Aib]TRQR[Cha]-NH2 (SMILES CC(=O)N[C@@H](C)C(=O)N(C)[C@@H](CO)C(=O)N1CCC[C@@H]1C(=O)N[C@@H](CCCNC(=N)N)C(=O)N[C@@H](Cc1c[nH]cn1)C(=O)N[C@@H](CC1CCCCC1)C(=O)N[C@@H](CC1CCCCC1)C(=O)N[C@@H](CC(N)=O)C(=O)N[C@@H](CC(C)C)C(=O)NC(C)(C)C(=O)N[C@H](C(=O)N[C@@H](CCCNC(=N)N)C(=O)N[C@@H](CCC(N)=O)C(=O)N[C@@H](CCCNC(=N)N)C(=O)N[C@@H](CC1CCCCC1)C(N)=O)[C@@H](C)O) [Ac-[MeSer23, D-Pro24, Cha27,28,36, Aib31]-PYY(22-36)] | 7.8 | 12 |
| Ac-S[dP][Nle][4Pal][Cha][Cha]NL[Aib]TRQR[Cha]-NH2 (SMILES CCCC[C@H](NC(=O)[C@H]1CCCN1C(=O)[C@H](CO)NC(C)=O)C(=O)N[C@@H](Cc1ccncc1)C(=O)N[C@@H](CC1CCCCC1)C(=O)N[C@@H](CC1CCCCC1)C(=O)N[C@@H](CC(N)=O)C(=O)N[C@@H](CC(C)C)C(=O)NC(C)(C)C(=O)N[C@H](C(=O)N[C@@H](CCCNC(=N)N)C(=O)N[C@@H](CCC(N)=O)C(=O)N[C@@H](CCCNC(=N)N)C(=O)N[C@@H](CC1CCCCC1)C(N)=O)[C@@H](C)O) [Ac-[D-Pro24, Nle25, Pya(4)26, Cha27,28,36, Aib31]-PYY(23-36)] | 2.6 | 20 |
| Ac-E[dP]R[4Pal][Cha][Cha]NL[Aib]TRQR[Cha]-NH2 (SMILES CC(=O)N[C@@H](CCC(=O)O)C(=O)N1CCC[C@@H]1C(=O)N[C@@H](CCCNC(=N)N)C(=O)N[C@@H](Cc1ccncc1)C(=O)N[C@@H](CC1CCCCC1)C(=O)N[C@@H](CC1CCCCC1)C(=O)N[C@@H](CC(N)=O)C(=O)N[C@@H](CC(C)C)C(=O)NC(C)(C)C(=O)N[C@H](C(=O)N[C@@H](CCCNC(=N)N)C(=O)N[C@@H](CCC(N)=O)C(=O)N[C@@H](CCCNC(=N)N)C(=O)N[C@@H](CC1CCCCC1)C(N)=O)[C@@H](C)O) [Ac-[Glu23, D-Pro24, Pya(4)26, Cha27,28,36, Aib31]-PYY(23-36)] | 1.3 | 4.6 |
| Ac-S[dP]R[3Pal][Cha][Cha]NL[Aib]TRQR[Cha]-NH2 (SMILES CC(=O)N[C@@H](CO)C(=O)N1CCC[C@@H]1C(=O)N[C@@H](CCCNC(=N)N)C(=O)N[C@@H](Cc1cccnc1)C(=O)N[C@@H](CC1CCCCC1)C(=O)N[C@@H](CC1CCCCC1)C(=O)N[C@@H](CC(N)=O)C(=O)N[C@@H](CC(C)C)C(=O)NC(C)(C)C(=O)N[C@H](C(=O)N[C@@H](CCCNC(=N)N)C(=O)N[C@@H](CCC(N)=O)C(=O)N[C@@H](CCCNC(=N)N)C(=O)N[C@@H](CC1CCCCC1)C(N)=O)[C@@H](C)O) [Ac-[D-Pro24, Pya(3)26, Cha27,28,36, Aib31]-PYY(23-36)] | 1.2 | 3.3 |
| Ac-S[dP]R[Dap(CONH2)][Cha][Cha]NL[Aib]TRQR[Cha]-NH2 (SMILES CC(=O)N[C@@H](CO)C(=O)N1CCC[C@@H]1C(=O)N[C@@H](CCCNC(=N)N)C(=O)N[C@@H](CNC(N)=O)C(=O)N[C@@H](CC1CCCCC1)C(=O)N[C@@H](CC1CCCCC1)C(=O)N[C@@H](CC(N)=O)C(=O)N[C@@H](CC(C)C)C(=O)NC(C)(C)C(=O)N[C@H](C(=O)N[C@@H](CCCNC(=N)N)C(=O)N[C@@H](CCC(N)=O)C(=O)N[C@@H](CCCNC(=N)N)C(=O)N[C@@H](CC1CCCCC1)C(N)=O)[C@@H](C)O) [Ac-[D-Pro24, Alb26, Cha27,28,36, Aib31]-PYY(23-36)] | 2.2 | 12 |
| Ac-S[dP]R[Orn][Cha][Cha]NL[Aib]TRQR[Cha]-NH2 (SMILES CC(=O)N[C@@H](CO)C(=O)N1CCC[C@@H]1C(=O)N[C@@H](CCCNC(=N)N)C(=O)N[C@@H](CCCN)C(=O)N[C@@H](CC1CCCCC1)C(=O)N[C@@H](CC1CCCCC1)C(=O)N[C@@H](CC(N)=O)C(=O)N[C@@H](CC(C)C)C(=O)NC(C)(C)C(=O)N[C@H](C(=O)N[C@@H](CCCNC(=N)N)C(=O)N[C@@H](CCC(N)=O)C(=O)N[C@@H](CCCNC(=N)N)C(=O)N[C@@H](CC1CCCCC1)C(N)=O)[C@@H](C)O) [Ac-[D-Pro24, Orn26, Cha27,28,36, Aib31]-PYY(23-36)] | 2.2 | 4.2 |
| Ac-S[dP]R[Cit][Cha][Cha]NL[Aib]TRQR[Cha]-NH2 (SMILES CC(=O)N[C@@H](CO)C(=O)N1CCC[C@@H]1C(=O)N[C@@H](CCCNC(=N)N)C(=O)N[C@@H](CCCNC(N)=O)C(=O)N[C@@H](CC1CCCCC1)C(=O)N[C@@H](CC1CCCCC1)C(=O)N[C@@H](CC(N)=O)C(=O)N[C@@H](CC(C)C)C(=O)NC(C)(C)C(=O)N[C@H](C(=O)N[C@@H](CCCNC(=N)N)C(=O)N[C@@H](CCC(N)=O)C(=O)N[C@@H](CCCNC(=N)N)C(=O)N[C@@H](CC1CCCCC1)C(N)=O)[C@@H](C)O) [Ac-[D-Pro24, Cit26, Cha27,28,36, Aib31]-PYY(23-36)] | 1.7 | 5.5 |
| Ac-S[dAze]RH[Cha][Cha]NL[Aib]TRQR[Cha]-NH2 (SMILES CC(=O)N[C@@H](CO)C(=O)N1CC[C@@H]1C(=O)N[C@@H](CCCNC(=N)N)C(=O)N[C@@H](Cc1c[nH]cn1)C(=O)N[C@@H](CC1CCCCC1)C(=O)N[C@@H](CC1CCCCC1)C(=O)N[C@@H](CC(N)=O)C(=O)N[C@@H](CC(C)C)C(=O)NC(C)(C)C(=O)N[C@H](C(=O)N[C@@H](CCCNC(=N)N)C(=O)N[C@@H](CCC(N)=O)C(=O)N[C@@H](CCCNC(=N)N)C(=O)N[C@@H](CC1CCCCC1)C(N)=O)[C@@H](C)O) [Ac-[D-Aze(2)24, Cha27,28,36, Aib31]-PYY(23-36)] | 1.3 | 1.7 |
| Ac-S[αMeP]RH[Cha][Cha]NL[Aib]TRQR[Cha]-NH2 (SMILES CC(=O)N[C@@H](CO)C(=O)N1CCC[C@@]1(C)C(=O)N[C@@H](CCCNC(=N)N)C(=O)N[C@@H](Cc1c[nH]cn1)C(=O)N[C@@H](CC1CCCCC1)C(=O)N[C@@H](CC1CCCCC1)C(=O)N[C@@H](CC(N)=O)C(=O)N[C@@H](CC(C)C)C(=O)NC(C)(C)C(=O)N[C@H](C(=O)N[C@@H](CCCNC(=N)N)C(=O)N[C@@H](CCC(N)=O)C(=O)N[C@@H](CCCNC(=N)N)C(=O)N[C@@H](CC1CCCCC1)C(N)=O)[C@@H](C)O) [Ac-[αMePro24, Cha27,28,36, Aib31]-PYY(23-36)] | 1.3 | 2.8 |
| Ac-S[d(αMeP)]RH[Cha][Cha]NL[Aib]TRQR[Cha]-NH2 (SMILES CC(=O)N[C@@H](CO)C(=O)N1CCC[C@]1(C)C(=O)N[C@@H](CCCNC(=N)N)C(=O)N[C@@H](Cc1c[nH]cn1)C(=O)N[C@@H](CC1CCCCC1)C(=O)N[C@@H](CC1CCCCC1)C(=O)N[C@@H](CC(N)=O)C(=O)N[C@@H](CC(C)C)C(=O)NC(C)(C)C(=O)N[C@H](C(=O)N[C@@H](CCCNC(=N)N)C(=O)N[C@@H](CCC(N)=O)C(=O)N[C@@H](CCCNC(=N)N)C(=O)N[C@@H](CC1CCCCC1)C(N)=O)[C@@H](C)O) [Ac-[D-αMePro24, Cha27,28,36, Aib31]-PYY(23-36)] | 2.6 | 4.5 |
